# Test results: the Human Domainome abundance scans (Beltran et al. 2025)
# ± gives the uncertainty stated by the source.
# B1: Apoptosis-associated speck-like protein containing a CARD, residues 114 to 194; numbered along this chain, Q9ULZ3 (parent)
# chain: FIDQHRAALIARVTNVEWLLDALYGKVLTDEQYQAVRAEPTNPSKMRKLFSFTPAWNWTCKDLLLQALRESQSYLVEDLER
# Variants of: B1
# Assay: abundance fitness (aPCA) (normalised: wild type 0, dead -1); higher = more abundant; growth selection in yeast, the domain comes from the species named
# Details: Homo sapiens
row,Variant,abundance fitness
1,FIDQHRAALIARVTNVEWLLDALYGKVLTDEQYQAVRAEPTNPSKMRKLFSFTRAWNWTCKDLLLQALRESQSYLVEDLER [P54R],-0.026 ± 0.044
2,FIDQHRAALIARVTNVEWLLDALYGKVLTDEQYQAVRAEPTNPSKMRKLFSFTQAWNWTCKDLLLQALRESQSYLVEDLER [P54Q],-0.064 ± 0.11
3,FIDQHRAALIARVTNVEWLLDALYGKVLTDEQYQAVRAEPTNPSKMRKLFSFTMAWNWTCKDLLLQALRESQSYLVEDLER [P54M],-0.292 ± 0.11
4,FIDQHRAALIARVTNVEWLLDALYGKVLTDEQYQAVRAEPTNPSKMRKLFSFTSAWNWTCKDLLLQALRESQSYLVEDLER [P54S],0.044 ± 0.06
5,FIDQHRAALIARVTNVEWLLDALYGKVLTDEQYQAVRAEPTNPSKMRKLFSFTTAWNWTCKDLLLQALRESQSYLVEDLER [P54T],0 ± 0.069
6,FIDQHRAALIARVTNVEWLLDALYGKVLTDEQYQAVRAEPTNPSKMRKLFSFTWAWNWTCKDLLLQALRESQSYLVEDLER [P54W],-0.084 ± 0.068
7,FIDQHRAALIARVTNVEWLLDALYGKVLTDEQYQAVRAEPTNPSKMRKLFSFTVAWNWTCKDLLLQALRESQSYLVEDLER [P54V],-0.197 ± 0.054
8,FIDQHRAALIARVTNVEWLLDALYGKVLTDEQYQAVRAEPTNPSKMRKLFSFTYAWNWTCKDLLLQALRESQSYLVEDLER [P54Y],-0.166 ± 0.21
9,FIDQHRAALIARVTNVEWLLDALYGKVLTDEQYQAVRAEPTNPSKMRKLFSFTPAWNDTCKDLLLQALRESQSYLVEDLER [W58D],0.453 ± 0.12
10,FIDQHRAALIARVTNVEWLLDALYGKVLTDEQYQAVRAEPTNPSKMRKLFSFTPAWNKTCKDLLLQALRESQSYLVEDLER [W58K],0.19 ± 0.083
11,FIDQHRAALIARVTNVEWLLDALYGKVLTDEQYQAVRAEPTNPSKMRKLFSFTPAWNATCKDLLLQALRESQSYLVEDLER [W58A],0.357 ± 0.063
12,FIDQHRAALIARVTNVEWLLDALYGKVLTDEQYQAVRAEPTNPSKMRKLFSFTPAWNITCKDLLLQALRESQSYLVEDLER [W58I],-0.217 ± 0.24
13,FIDQHRAALIARVTNVEWLLDALYGKVLTDEQYQAVRAEPTNPSKMRKLFSFTPAWNFTCKDLLLQALRESQSYLVEDLER [W58F],0.105 ± 0.11
14,FIDQHRAALIARVTNVEWLLDALYGKVLTDEQYQAVRAEPTNPSKMRKLFSFTPAWNETCKDLLLQALRESQSYLVEDLER [W58E],0.376 ± 0.07
15,FIDQHRAALIARVTNVEWLLDALYGKVLTDEQYQAVRAEPTNPSKMRKLFSFTPAWNNTCKDLLLQALRESQSYLVEDLER [W58N],0.105 ± 0.26
16,FIDQHRAALIARVTNVEWLLDALYGKVLTDEQYQAVRAEPTNPSKMRKLFSFTPAWNCTCKDLLLQALRESQSYLVEDLER [W58C],0.047 ± 0.082
17,FIDQHRAALIARVTNVEWLLDALYGKVLTDEQYQAVRAEPTNPSKMRKLFSFTPAWNMTCKDLLLQALRESQSYLVEDLER [W58M],0.167 ± 0.075
18,FIDQHRAALIARVTNVEWLLDALYGKVLTDEQYQAVRAEPTNPSKMRKLFSFTPAWNPTCKDLLLQALRESQSYLVEDLER [W58P],0.145 ± 0.06
19,FIDQHRAALIARVTNVEWLLDALYGKVLTDEQYQAVRAEPTNPSKMRKLFSFTPAWNGTCKDLLLQALRESQSYLVEDLER [W58G],0.205 ± 0.037
20,FIDQHRAALIARVTNVEWLLDALYGKVLTDEQYQAVRAEPTNPSKMRKLFSFTPAWNHTCKDLLLQALRESQSYLVEDLER [W58H],0.289 ± 0.12
21,FIDQHRAALIARVTNVEWLLDALYGKVLTDEQYQAVRAEPTNPSKMRKLFSFTPGWNWTCKDLLLQALRESQSYLVEDLER [A55G],0.082 ± 0.049
22,FIDQHRAALIARVTNVEWLLDALYGKVLTDEQYQAVRAEPTNPSKMRKLFSFTPNWNWTCKDLLLQALRESQSYLVEDLER [A55N],0.181 ± 0.22
23,FIDQHRAALIARVTNVEWLLDALYGKVLTDEQYQAVRAEPTNPSKMRKLFSFTPHWNWTCKDLLLQALRESQSYLVEDLER [A55H],-0.005 ± 0.15

row,Variant,abundance fitness
1,FIDQHRAALIARVTNVEWLLDALYGKVLTDEQYQAVRAEPTNPSKMRKLFSFTPMWNWTCKDLLLQALRESQSYLVEDLER [A55M],-0.162 ± 0.12
2,FIDQHRAALIARVTNVEWLLDALYGKVLTDEQYQAVRAEPTNPSKMRKLFSFTPSWNWTCKDLLLQALRESQSYLVEDLER [A55S],0.107 ± 0.056
3,FIDQHRAALIARVTNVEWLLDALYGKVLTDEQYQAVRAEPTNPSKMRKLFSFTPEWNWTCKDLLLQALRESQSYLVEDLER [A55E],0.087 ± 0.073
4,FIDQHRAALIARVTNVEWLLDALYGKVLTDEQYQAVRAEPTNPSKMRKLFSFTPVWNWTCKDLLLQALRESQSYLVEDLER [A55V],-0.416 ± 0.082
5,FIDQHRAALIARVTNVEWLLDALYGKVLTDEQYQAVRAEPTNPSKMRKLFSFTPKWNWTCKDLLLQALRESQSYLVEDLER [A55K],0.016 ± 0.16
6,FIDQHRAALIARVTNVEWLLDALYGKVLTDEQYQAVRAEPTNPSKMRKLFSFTPYWNWTCKDLLLQALRESQSYLVEDLER [A55Y],-0.077 ± 0.21
7,FIDQHRAALIARVTNVEWLLDALYGKVLTDEQYQAVRAEPTNPSKMRKLFSFTPFWNWTCKDLLLQALRESQSYLVEDLER [A55F],-0.36 ± 0.32
8,FIDQHRAALIARVTNVEWLLDALYGKVLTDEQYQAVRAEPTNPSKMRKLFSFTPIWNWTCKDLLLQALRESQSYLVEDLER [A55I],-0.286 ± 0.44
9,FIDQHRAALIARVTNVEWLLDALYGKVLTDEQYQAVRAEPTNPSKMRKLFSFTPPWNWTCKDLLLQALRESQSYLVEDLER [A55P],-0.325 ± 0.073
10,FIDQHRAALIARVTNVEWLLDALYGKVLTDEQYQAVRAEPTNPSKMRKLFSFTPTWNWTCKDLLLQALRESQSYLVEDLER [A55T],-0.061 ± 0.084
11,FIDQHRAALIARVTNVEWLLDALYGKVLTDEQYQAVRAEPTNPSKMRKLFSFTPQWNWTCKDLLLQALRESQSYLVEDLER [A55Q],-0.062 ± 0.081
12,FIDQHRAALIARVTNVEWLLDALYGKVLTDEQYQAVRAEPTNPSKMRKLFSFTPDWNWTCKDLLLQALRESQSYLVEDLER [A55D],-0.061 ± 0.16
13,FIDQHRAALIARVTNVEWLLDALYGKVLTDEQYQAVRAEPTNPSKMRKLFSFTPAWTWTCKDLLLQALRESQSYLVEDLER [N57T],-0.106 ± 0.067
14,FIDQHRAALIARVTNVEWLLDALYGKVLTDEQYQAVRAEPTNPSKMRKLFSFTPAWHWTCKDLLLQALRESQSYLVEDLER [N57H],-0.279 ± 0.21
15,FIDQHRAALIARVTNVEWLLDALYGKVLTDEQYQAVRAEPTNPSKMRKLFSFTPAWRWTCKDLLLQALRESQSYLVEDLER [N57R],-0.731 ± 0.074
16,FIDQHRAALIARVTNVEWLLDALYGKVLTDEQYQAVRAEPTNPSKMRKLFSFTPAWPWTCKDLLLQALRESQSYLVEDLER [N57P],-0.233 ± 0.081
17,FIDQHRAALIARVTNVEWLLDALYGKVLTDEQYQAVRAEPTNPSKMRKLFSFTPAWKWTCKDLLLQALRESQSYLVEDLER [N57K],-0.492 ± 0.12
18,FIDQHRAALIARVTNVEWLLDALYGKVLTDEQYQAVRAEPTNPSKMRKLFSFTPAWEWTCKDLLLQALRESQSYLVEDLER [N57E],-0.32 ± 0.079
19,FIDQHRAALIARVTNVEWLLDALYGKVLTDEQYQAVRAEPTNPSKMRKLFSFTPAWLWTCKDLLLQALRESQSYLVEDLER [N57L],-0.178 ± 0.056
20,FIDQHRAALIARVTNVEWLLDALYGKVLTDEQYQAVRAEPTNPSKMRKLFSFTPAWDWTCKDLLLQALRESQSYLVEDLER [N57D],0.092 ± 0.073
21,FIDQHRAALIARVTNVEWLLDALYGKVLTDEQYQAVRAEPTNPSKMRKLFSFTPAWWWTCKDLLLQALRESQSYLVEDLER [N57W],-0.468 ± 0.086
22,FIDQHRAALIARVTNVEWLLDALYGKVLTDEQYQAVRAEPTNPSKMRKLFSFTPAWSWTCKDLLLQALRESQSYLVEDLER [N57S],0.018 ± 0.052
23,FIDQHRAALIARVTNVEWLLDALYGKVLTDEQYQAVRAEPTNPSKMRKLFSFTPAWIWTCKDLLLQALRESQSYLVEDLER [N57I],-0.311 ± 0.12

row,Variant,abundance fitness
1,FIDQHRAALIARVTNVEWLLDALYGKVLTDEQYQAVRAEPTNPSKMRKLFSFTPAWCWTCKDLLLQALRESQSYLVEDLER [N57C],-0.269 ± 0.1
2,FIDQHRAALIARVTNVEWLLDALYGKVLTDEQYQAVRAEPTNPSKMRKLFSFTPAWYWTCKDLLLQALRESQSYLVEDLER [N57Y],-0.852 ± 0.25
3,FIDQHRAALIARVTNVEWLLDALYGKVLTDEQYQAVRAEPTNPSKMRKLFSFTPAWVWTCKDLLLQALRESQSYLVEDLER [N57V],-0.431 ± 0.053
4,FIDQHRAALIARVTNVEWLLDALYGKVLTDEQYQAVRAEPTNPSKMRKLFSFTPAWMWTCKDLLLQALRESQSYLVEDLER [N57M],-0.399 ± 0.087
5,FIDQHRAALIARVTNVEWLLDALYGKVLTDEQYQAVRAEPTNPSKMRKLFSFTPARNWTCKDLLLQALRESQSYLVEDLER [W56R],-0.574 ± 0.069
6,FIDQHRAALIARVTNVEWLLDALYGKVLTDEQYQAVRAEPTNPSKMRKLFSFTPANNWTCKDLLLQALRESQSYLVEDLER [W56N],-0.83 ± 0.25
7,FIDQHRAALIARVTNVEWLLDALYGKVLTDEQYQAVRAEPTNPSKMRKLFSFTPAFNWTCKDLLLQALRESQSYLVEDLER [W56F],-0.506 ± 0.24
8,FIDQHRAALIARVTNVEWLLDALYGKVLTDEQYQAVRAEPTNPSKMRKLFSFTPAANWTCKDLLLQALRESQSYLVEDLER [W56A],-0.899 ± 0.13
9,FIDQHRAALIARVTNVEWLLDALYGKVLTDEQYQAVRAEPTNPSKMRKLFSFTPAGNWTCKDLLLQALRESQSYLVEDLER [W56G],-0.838 ± 0.097
10,FIDQHRAALIARVTNVEWLLDALYGKVLTDEQYQAVRAEPTNPSKMRKLFSFTPAKNWTCKDLLLQALRESQSYLVEDLER [W56K],-0.684 ± 0.22
11,FIDQHRAALIARVTNVEWLLDALYGKVLTDEQYQAVRAEPTNPSKMRKLFSFTPALNWTCKDLLLQALRESQSYLVEDLER [W56L],-0.568 ± 0.061
12,FIDQHRAALIARVTNVEWLLDALYGKVLTDEQYQAVRAEPTNPSKMRKLFSFTPADNWTCKDLLLQALRESQSYLVEDLER [W56D],-0.626 ± 0.32
13,FIDQHRAALIARVTNVEWLLDALYGKVLTDEQYQAVRAEPTNPSKMRKLFSFTPATNWTCKDLLLQALRESQSYLVEDLER [W56T],-0.74 ± 0.088
14,FIDQHRAALIARVTNVEWLLDALYGKVLTDEQYQAVRAEPTNPSKMRKLFSFTPASNWTCKDLLLQALRESQSYLVEDLER [W56S],-0.813 ± 0.095
15,FIDQHRAALIARVTNVEWLLDALYGKVLTDEQYQAVRAEPTNPSKMRKLFSFTPAVNWTCKDLLLQALRESQSYLVEDLER [W56V],-0.694 ± 0.097
16,FIDQHRAALIARVTNVEWLLDALYGKVLTDEQYQAVRAEPTNPSKMRKLFSFTPAENWTCKDLLLQALRESQSYLVEDLER [W56E],-1.13 ± 0.42
17,FIDQHRAALIARVTNVEWLLDALYGKVLTDEQYQAVRAEPTNPSKMRKLFSFTPAMNWTCKDLLLQALRESQSYLVEDLER [W56M],-0.108 ± 0.099
18,FIDQHRAALIARVTNVEWLLDALYGKVLTDEQYQAVRAEPTNPSKMRKLFSFTPAHNWTCKDLLLQALRESQSYLVEDLER [W56H],-0.371 ± 0.26
19,FIDQHRAALIARVTNVEWLLDALYGKVLTDEQYQAVRAEPTNPSKMRKLFSFTPAYNWTCKDLLLQALRESQSYLVEDLER [W56Y],-1.01 ± 0.38
20,FIDQHRAALIARVTNVEWLLDALYGKVLTDEQYQAVRAEPTNPSKMRKLFSFTPAQNWTCKDLLLQALRESQSYLVEDLER [W56Q],-0.598 ± 0.15
21,FIDQHRAALIARVTNVEWLLDALYGKVLTDEQYQAVRAEPTNPSKMRKLFSFTPACNWTCKDLLLQALRESQSYLVEDLER [W56C],-0.957 ± 0.5
22,FIDQHRAALIARVTNVEWLLDALYGKVLTDEQYQAVRAEPTNPSKMRKLFSFTPAINWTCKDLLLQALRESQSYLVEDLER [W56I],-0.434 ± 0.16
